# Measurements published in the supplement of paper PMC9112550, “Optimization of the antimicrobial peptide Bac7 by deep mutational scanning” (BMC Biology, 2022).
# Test system: Escherichia coli TOP10
# Test: shrunken log2 fold change of peptide-encoding DNA abundance (4.5 h post-induction vs induction); higher = less antimicrobial activity (less host growth inhibition)
# Details: time post-induction: 4.5 h; library: site-saturation at positions 5, 18, 19, 20
# 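Also: peptides expressed intracellularly from a pBAD plasmid library in pooled LB shake-flask culture, induced with 0.3% L-arabinose, DNA abundance read by NGS, three biological replicates, DESeq2 with apeglm shrinkage.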
row,Sequence,shrunken log2 fold change
1,RRIRGRPPRLPRPRPRPWCIPRP,-0.153
2,RRIRVRPPRLPRPRPRPVIPPRP,-0.0964
3,RRIRMRPPRLPRPRPRPNKLPRP,-0.145
4,RRIRLRPPRLPRPRPRPPAIPRP,2.54
5,RRIRHRPPRLPRPRPRPSFHPRP,-0.495
6,RRIRVRPPRLPRPRPRPDDQPRP,-0.00455
7,RRIRQRPPRLPRPRPRPLWGPRP,-0.0254
8,RRIRKRPPRLPRPRPRPLIFPRP,-0.0683
9,RRIRIRPPRLPRPRPRPYHVPRP,-0.186
10,RRIRPRPPRLPRPRPRPAGHPRP,0.0291
11,RRIRDRPPRLPRPRPRPKWLPRP,0.223
12,RRIRNRPPRLPRPRPRPWAFPRP,-0.014
13,RRIRERPPRLPRPRPRPCIYPRP,-0.328
14,RRIRTRPPRLPRPRPRPQVRPRP,0.0794
15,RRIRPRPPRLPRPRPRPIADPRP,0.0705
16,RRIRFRPPRLPRPRPRPGDGPRP,0.264
17,RRIRARPPRLPRPRPRPRCPPRP,0.248
18,RRIRRRPPRLPRPRPRPQHQPRP,0.246
19,RRIRMRPPRLPRPRPRPTLVPRP,0.171
20,RRIRVRPPRLPRPRPRPDVWPRP,-0.0858

row,Sequence,shrunken log2 fold change
1,RRIRGRPPRLPRPRPRPVTSPRP,0.203
2,RRIRLRPPRLPRPRPRPGGAPRP,0.384
3,RRIRQRPPRLPRPRPRPHCQPRP,-0.39
4,RRIRERPPRLPRPRPRPDMIPRP,0.0157
5,RRIRQRPPRLPRPRPRPAFCPRP,0.585
6,RRIRHRPPRLPRPRPRPRKSPRP,0.119
7,RRIRVRPPRLPRPRPRPVPMPRP,0.0779
8,RRIRPRPPRLPRPRPRPRNHPRP,-0.196
9,RRIRWRPPRLPRPRPRPIFMPRP,-0.0259
10,RRIRYRPPRLPRPRPRPVVQPRP,0.0013
11,RRIRRRPPRLPRPRPRPVGQPRP,0.0153
12,RRIRFRPPRLPRPRPRPYDSPRP,-0.924
13,RRIRGRPPRLPRPRPRPTNEPRP,0.46
14,RRIRMRPPRLPRPRPRPNSNPRP,-0.177
15,RRIRSRPPRLPRPRPRPSEDPRP,-0.325
16,RRIRWRPPRLPRPRPRPAPNPRP,3.12
17,RRIRCRPPRLPRPRPRPPKMPRP,0.222
18,RRIRWRPPRLPRPRPRPDVWPRP,0.373
19,RRIRFRPPRLPRPRPRPHSNPRP,-0.84
20,RRIRARPPRLPRPRPRPNIRPRP,-0.289

row,Sequence,shrunken log2 fold change
1,RRIRHRPPRLPRPRPRPIFQPRP,0.153
2,RRIRKRPPRLPRPRPRPRKWPRP,0.448
3,RRIRKRPPRLPRPRPRPVPTPRP,0.916
4,RRIRERPPRLPRPRPRPFVGPRP,-0.143
5,RRIRCRPPRLPRPRPRPSAAPRP,0.386
6,RRIRIRPPRLPRPRPRPAPCPRP,-0.0838
7,RRIRDRPPRLPRPRPRPYYIPRP,-0.0955
8,RRIRWRPPRLPRPRPRPEVQPRP,0.69
9,RRIRNRPPRLPRPRPRPPKVPRP,0.28
10,RRIRIRPPRLPRPRPRPWFYPRP,-0.161
11,RRIRVRPPRLPRPRPRPTDSPRP,-0.115
12,RRIRIRPPRLPRPRPRPKRHPRP,-0.0187
13,RRIRGRPPRLPRPRPRPTMWPRP,0.757
14,RRIRARPPRLPRPRPRPETCPRP,0.331
15,RRIRRRPPRLPRPRPRPFLRPRP,0.382
16,RRIRGRPPRLPRPRPRPMRAPRP,1.74
17,RRIRPRPPRLPRPRPRPQKCPRP,-0.0778
18,RRIRHRPPRLPRPRPRPTSYPRP,-0.178
19,RRIRPRPPRLPRPRPRPHPHPRP,0.0281
20,RRIRSRPPRLPRPRPRPCHRPRP,-0.0558
